In article doi:10.1101/2020.03.02.973859:

Molecular target: T1, K+/Cl- co-transporter KCC2 (mouse (endogenous in mouse forebrain)), Q91V14
T1 chain: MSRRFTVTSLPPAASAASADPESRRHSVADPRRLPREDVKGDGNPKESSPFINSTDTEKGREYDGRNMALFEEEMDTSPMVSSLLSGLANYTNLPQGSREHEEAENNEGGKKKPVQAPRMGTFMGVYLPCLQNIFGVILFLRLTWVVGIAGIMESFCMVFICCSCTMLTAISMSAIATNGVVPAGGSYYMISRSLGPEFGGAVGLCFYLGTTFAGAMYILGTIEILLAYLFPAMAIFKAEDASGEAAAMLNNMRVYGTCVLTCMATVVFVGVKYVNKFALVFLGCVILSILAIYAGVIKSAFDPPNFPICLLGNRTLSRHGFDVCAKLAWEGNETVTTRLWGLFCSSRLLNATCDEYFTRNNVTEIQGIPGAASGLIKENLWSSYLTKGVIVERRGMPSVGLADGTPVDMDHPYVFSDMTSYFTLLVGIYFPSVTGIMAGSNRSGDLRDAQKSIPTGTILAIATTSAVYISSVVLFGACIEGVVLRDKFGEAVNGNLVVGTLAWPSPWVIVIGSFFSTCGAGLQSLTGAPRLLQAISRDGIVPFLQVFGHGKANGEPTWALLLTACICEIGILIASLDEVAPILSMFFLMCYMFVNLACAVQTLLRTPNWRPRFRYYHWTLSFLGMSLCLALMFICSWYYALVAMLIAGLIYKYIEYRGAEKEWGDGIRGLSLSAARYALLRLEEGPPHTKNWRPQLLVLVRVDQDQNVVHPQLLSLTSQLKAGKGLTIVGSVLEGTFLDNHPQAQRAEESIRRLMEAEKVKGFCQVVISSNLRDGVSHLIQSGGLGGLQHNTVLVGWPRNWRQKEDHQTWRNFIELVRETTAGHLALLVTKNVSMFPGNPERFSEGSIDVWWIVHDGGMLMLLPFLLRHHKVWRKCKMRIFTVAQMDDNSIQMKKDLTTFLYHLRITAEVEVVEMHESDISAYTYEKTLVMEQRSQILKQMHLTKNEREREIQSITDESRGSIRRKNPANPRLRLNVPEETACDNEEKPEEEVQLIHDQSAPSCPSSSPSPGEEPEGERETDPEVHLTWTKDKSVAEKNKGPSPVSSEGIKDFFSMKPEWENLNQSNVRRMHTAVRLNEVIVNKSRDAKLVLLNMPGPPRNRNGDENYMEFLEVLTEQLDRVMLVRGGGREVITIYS
Test: native gel or EMSA
Conditions: remark: other sources report otherwise

stoichiometry N: 2
B1: K+/Cl- co-transporter KCC2, Q91V14 1-1138 (natural protein)
chain: MSRRFTVTSLPPAASAASADPESRRHSVADPRRLPREDVKGDGNPKESSPFINSTDTEKGREYDGRNMALFEEEMDTSPMVSSLLSGLANYTNLPQGSREHEEAENNEGGKKKPVQAPRMGTFMGVYLPCLQNIFGVILFLRLTWVVGIAGIMESFCMVFICCSCTMLTAISMSAIATNGVVPAGGSYYMISRSLGPEFGGAVGLCFYLGTTFAGAMYILGTIEILLAYLFPAMAIFKAEDASGEAAAMLNNMRVYGTCVLTCMATVVFVGVKYVNKFALVFLGCVILSILAIYAGVIKSAFDPPNFPICLLGNRTLSRHGFDVCAKLAWEGNETVTTRLWGLFCSSRLLNATCDEYFTRNNVTEIQGIPGAASGLIKENLWSSYLTKGVIVERRGMPSVGLADGTPVDMDHPYVFSDMTSYFTLLVGIYFPSVTGIMAGSNRSGDLRDAQKSIPTGTILAIATTSAVYISSVVLFGACIEGVVLRDKFGEAVNGNLVVGTLAWPSPWVIVIGSFFSTCGAGLQSLTGAPRLLQAISRDGIVPFLQVFGHGKANGEPTWALLLTACICEIGILIASLDEVAPILSMFFLMCYMFVNLACAVQTLLRTPNWRPRFRYYHWTLSFLGMSLCLALMFICSWYYALVAMLIAGLIYKYIEYRGAEKEWGDGIRGLSLSAARYALLRLEEGPPHTKNWRPQLLVLVRVDQDQNVVHPQLLSLTSQLKAGKGLTIVGSVLEGTFLDNHPQAQRAEESIRRLMEAEKVKGFCQVVISSNLRDGVSHLIQSGGLGGLQHNTVLVGWPRNWRQKEDHQTWRNFIELVRETTAGHLALLVTKNVSMFPGNPERFSEGSIDVWWIVHDGGMLMLLPFLLRHHKVWRKCKMRIFTVAQMDDNSIQMKKDLTTFLYHLRITAEVEVVEMHESDISAYTYEKTLVMEQRSQILKQMHLTKNEREREIQSITDESRGSIRRKNPANPRLRLNVPEETACDNEEKPEEEVQLIHDQSAPSCPSSSPSPGEEPEGERETDPEVHLTWTKDKSVAEKNKGPSPVSSEGIKDFFSMKPEWENLNQSNVRRMHTAVRLNEVIVNKSRDAKLVLLNMPGPPRNRNGDENYMEFLEVLTEQLDRVMLVRGGGREVITIYS
